Assay results taken from patent US20260098059A1 (ENDOMET BIOSCIENCES, published 2026).
Values joined by “and” are separate entries in the source; they are usually repeats but may differ in a detail not shown here. Equal values may be shown once. Bridges are numbered along the chain shown (N, C = ends). Where no end group is shown, it is not given here. [ ]: non-standard residue; d: D form. Chg = N[C@H](C(=O)O)C1CCCCC1; NMeA = CN[C@@H](C)C(=O)O

T1: β-catenin (UniProt P35222 134-665, limits assumed, biotinylated in the SPR and plate assays)
T1 construct: also called beta catenin; biotinylated β-catenin
T1 sequence (looked up): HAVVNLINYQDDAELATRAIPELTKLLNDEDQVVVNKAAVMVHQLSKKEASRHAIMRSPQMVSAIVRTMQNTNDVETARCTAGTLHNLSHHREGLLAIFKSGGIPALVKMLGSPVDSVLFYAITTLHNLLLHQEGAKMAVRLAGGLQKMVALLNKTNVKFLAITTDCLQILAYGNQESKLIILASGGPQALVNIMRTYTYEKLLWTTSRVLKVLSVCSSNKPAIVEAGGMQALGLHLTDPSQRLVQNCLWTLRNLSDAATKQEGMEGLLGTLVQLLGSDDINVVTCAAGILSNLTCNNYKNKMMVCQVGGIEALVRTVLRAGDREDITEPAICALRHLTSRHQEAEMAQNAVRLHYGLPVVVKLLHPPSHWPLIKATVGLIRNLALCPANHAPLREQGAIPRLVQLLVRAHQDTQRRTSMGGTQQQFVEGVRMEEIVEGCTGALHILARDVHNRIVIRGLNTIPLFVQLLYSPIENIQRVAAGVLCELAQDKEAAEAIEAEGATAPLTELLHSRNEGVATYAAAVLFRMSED

B1: SEQ ID NO: 466 (peptide)
peptide: Ac-W[NMeA]QSILDEH[Chg]QKVW-NH2
modifications: lactam 8-12; not fully specified; printed as Ac-NH-W-NMeA-QSILDE*H-Chg-QK*VW-NH2
B2: SEQ ID NO: 233 (peptide)
peptide: DWFLICAWK
HELM: PEPTIDE1{D.W.F.L.I.C.A.W.K}$PEPTIDE1,PEPTIDE1,1:R3-9:R3$$$V2.0
SMILES: CC[C@H](C)[C@@H]1NC(=O)[C@H](CC(C)C)NC(=O)[C@H](Cc2ccccc2)NC(=O)[C@H](Cc2c[nH]c3ccccc23)NC(=O)[C@@H](N)CC(=O)NCCCC[C@@H](C(=O)O)NC(=O)[C@H](Cc2c[nH]c3ccccc23)NC(=O)[C@H](C)NC(=O)[C@H](CS)NC1=O
B3: SEQ ID NO: 470 (peptide)
peptide: Ac-W[NMeA]QSILDEH[Chg]QKVWG-NH2
modifications: lactam 8-12; not fully specified; printed as Ac-NH-W-NMeA-QSILDE*H-Chg-QK*VWG-NH2
B4: SEQ ID NO: 437 (peptide)
peptide: WAQSILDEHVQKVWG
HELM: PEPTIDE1{[ac].W.[meA].Q.S.I.L.D.E.H.V.Q.K.V.W.G.[am]}$PEPTIDE1,PEPTIDE1,9:R3-13:R3$$$V2.0
SMILES: CC[C@H](C)[C@H](NC(=O)[C@H](CO)NC(=O)[C@H](CCC(N)=O)NC(=O)[C@H](C)N(C)C(=O)[C@H](Cc1c[nH]c2ccccc12)NC(C)=O)C(=O)N[C@@H](CC(C)C)C(=O)N[C@@H](CC(=O)O)C(=O)N[C@H]1CCC(=O)NCCCC[C@@H](C(=O)N[C@H](C(=O)N[C@@H](Cc2c[nH]c3ccccc23)C(=O)NCC(N)=O)C(C)C)NC(=O)[C@H](CCC(N)=O)NC(=O)[C@H](C(C)C)NC(=O)[C@H](Cc2c[nH]cn2)NC1=O
B5: SEQ ID NO: 230 (peptide)
peptide: MWKLIEFWG
HELM: PEPTIDE1{M.W.K.L.I.E.F.W.G}$PEPTIDE1,PEPTIDE1,3:R3-6:R3$$$V2.0
SMILES: CC[C@H](C)[C@@H]1NC(=O)[C@H](CC(C)C)NC(=O)[C@@H](NC(=O)[C@H](Cc2c[nH]c3ccccc23)NC(=O)[C@@H](N)CCSC)CCCCNC(=O)CC[C@@H](C(=O)N[C@@H](Cc2ccccc2)C(=O)N[C@@H](Cc2c[nH]c3ccccc23)C(=O)NCC(=O)O)NC1=O
B6: SEQ ID NO: 460 (peptide)
peptide: Ac-W[NMeA]QSILDKH[Chg]QDVW-NH2
modifications: lactam 8-12; not fully specified; printed as Ac-NH-W-NMeA-QSILDK*H-Chg-QD*VW-NH2
B7: SEQ ID NO: 243 (peptide)
peptide: KWFLIXAWD
HELM: PEPTIDE1{[ac].K.W.F.L.I.[Abu].A.W.D}$PEPTIDE1,PEPTIDE1,2:R3-10:R3$$$V2.0
SMILES: CC[C@@H]1NC(=O)[C@H]([C@@H](C)CC)NC(=O)[C@H](CC(C)C)NC(=O)[C@H](Cc2ccccc2)NC(=O)[C@H](Cc2c[nH]c3ccccc23)NC(=O)[C@@H](NC(C)=O)CCCCNC(=O)C[C@@H](C(=O)O)NC(=O)[C@H](Cc2c[nH]c3ccccc23)NC(=O)[C@H](C)NC1=O
B8: SEQ ID NO: 240 (peptide)
peptide: MWILISFW
HELM: PEPTIDE1{[ac].M.W.I.L.I.S.F.W.[O=C(O)CCCN[*:1]]}$$$$V2.0
SMILES: CC[C@H](C)[C@H](NC(=O)[C@H](CC(C)C)NC(=O)[C@@H](NC(=O)[C@H](Cc1c[nH]c2ccccc12)NC(=O)[C@H](CCSC)NC(C)=O)[C@@H](C)CC)C(=O)N[C@@H](CO)C(=O)N[C@@H](Cc1ccccc1)C(=O)N[C@@H](Cc1c[nH]c2ccccc12)C(=O)NCCCC(=O)O
B9: SEQ ID NO: 415 (peptide)
peptide: WAQKILDEHGSRVWG
HELM: PEPTIDE1{W.[meA].Q.K.I.L.D.E.H.[O=C([C@@H](N[*:1])C1CCCCC1)[*:2]].S.R.V.W.G.[am]}$PEPTIDE1,PEPTIDE1,4:R3-8:R3$$$V2.0
SMILES: CC[C@H](C)[C@@H]1NC(=O)[C@@H](NC(=O)[C@H](CCC(N)=O)NC(=O)[C@H](C)N(C)C(=O)[C@@H](N)Cc2c[nH]c3ccccc23)CCCCNC(=O)CC[C@@H](C(=O)N[C@@H](Cc2c[nH]cn2)C(=O)N[C@H](C(=O)N[C@@H](CO)C(=O)N[C@@H](CCCNC(=N)N)C(=O)N[C@H](C(=O)N[C@@H](Cc2c[nH]c3ccccc23)C(=O)NCC(N)=O)C(C)C)C2CCCCC2)NC(=O)[C@H](CC(=O)O)NC(=O)[C@H](CC(C)C)NC1=O
B10: SEQ ID NO: 421 (peptide)
peptide: WAQKGLDEHVQRVWG
HELM: PEPTIDE1{[ac].W.[meA].Q.K.[O=C([C@@H](N[*:1])C1CCCCC1)[*:2]].L.D.E.H.V.Q.R.V.W.G.[am]}$PEPTIDE1,PEPTIDE1,5:R3-9:R3$$$V2.0
SMILES: CC(=O)N[C@@H](Cc1c[nH]c2ccccc12)C(=O)N(C)[C@@H](C)C(=O)N[C@@H](CCC(N)=O)C(=O)N[C@H]1CCCCNC(=O)CC[C@@H](C(=O)N[C@@H](Cc2c[nH]cn2)C(=O)N[C@H](C(=O)N[C@@H](CCC(N)=O)C(=O)N[C@@H](CCCNC(=N)N)C(=O)N[C@H](C(=O)N[C@@H](Cc2c[nH]c3ccccc23)C(=O)NCC(N)=O)C(C)C)C(C)C)NC(=O)[C@H](CC(=O)O)NC(=O)[C@H](CC(C)C)NC(=O)[C@H](C2CCCCC2)NC1=O
B11: SEQ ID NO: 416 (peptide)
peptide: WAQKILDEHGSRVWG
HELM: PEPTIDE1{[ac].W.[meA].Q.K.I.L.D.E.H.[O=C([C@@H](N[*:1])C1CCCCC1)[*:2]].S.R.V.W.G.[am]}$PEPTIDE1,PEPTIDE1,5:R3-9:R3$$$V2.0
SMILES: CC[C@H](C)[C@@H]1NC(=O)[C@@H](NC(=O)[C@H](CCC(N)=O)NC(=O)[C@H](C)N(C)C(=O)[C@H](Cc2c[nH]c3ccccc23)NC(C)=O)CCCCNC(=O)CC[C@@H](C(=O)N[C@@H](Cc2c[nH]cn2)C(=O)N[C@H](C(=O)N[C@@H](CO)C(=O)N[C@@H](CCCNC(=N)N)C(=O)N[C@H](C(=O)N[C@@H](Cc2c[nH]c3ccccc23)C(=O)NCC(N)=O)C(C)C)C2CCCCC2)NC(=O)[C@H](CC(=O)O)NC(=O)[C@H](CC(C)C)NC1=O
B12: SEQ ID NO: 422 (peptide)
peptide: W[NMeA]QK[Chg]LDEHVQRVWG-NH2
modifications: lactam 4-8; not fully specified (N-terminus); printed as H17C8C(O)NH-W-NMeA-QK*-Chg-LDE*HVQRVWG-NH2
B13: SEQ ID NO: 420 (peptide)
peptide: WAQKGLDEHVQRVWG
HELM: PEPTIDE1{W.[meA].Q.K.[O=C([C@@H](N[*:1])C1CCCCC1)[*:2]].L.D.E.H.V.Q.R.V.W.G.[am]}$PEPTIDE1,PEPTIDE1,4:R3-8:R3$$$V2.0
SMILES: CC(C)C[C@@H]1NC(=O)[C@H](C2CCCCC2)NC(=O)[C@@H](NC(=O)[C@H](CCC(N)=O)NC(=O)[C@H](C)N(C)C(=O)[C@@H](N)Cc2c[nH]c3ccccc23)CCCCNC(=O)CC[C@@H](C(=O)N[C@@H](Cc2c[nH]cn2)C(=O)N[C@H](C(=O)N[C@@H](CCC(N)=O)C(=O)N[C@@H](CCCNC(=N)N)C(=O)N[C@H](C(=O)N[C@@H](Cc2c[nH]c3ccccc23)C(=O)NCC(N)=O)C(C)C)C(C)C)NC(=O)[C@H](CC(=O)O)NC1=O

The binders below were run against T1, β-catenin (assay: competitive FP).
Description: Fluorescence polarization (FP) is another method used to analyze protein-ligand interactions. This methodology measures the change in fluorescence light emitted by a labelled compound free vs. conjugated to another compound in solution. Upon binding of the fluorescent molecule to a complex, polarization increases because of limited rotation of the fluorescent tracer. Competitive FP is often utilized in drug screens as it is formatted for high throughput screens in a plate format. This immunoassay is performed by introducing a non-conjugated drug to compete for binding to the labelled competitor-ligand complex, leading to a reduction in polarization. […] Exemplary methodology is described in Example 13. Data were analyzed and plotted in Microsoft Excel (Microsoft, Redmond, WA).
Varying concentrations of β-catenin inhibitor candidate (SEQ ID NO: 404) were then added in a series of serial dilutions from 10 nM to 30 uM of inhibitor in different wells of the plate. The fluorescence polarization was read by Infinite M1000 (Tecan, Baldwin Park CA) at excitation wavelength of 470 nm and measured at emission wavelength of 520 nm. […] The experiments were performed three times and data were analyzed and plotted in Microsoft Excel (Microsoft, Redmond, WA).

Kd | Binder
≤ 400 nM | B1
≤ 400 nM | WPQSILDEHGQKVW (not fully specified; Ac-NH-WPQSILDE*H-Chg-QK*VW-NH2) [SEQ ID NO: 468]
≤ 400 nM | B2
≤ 400 nM | B3
≤ 400 nM | B4
≤ 400 nM | B5
≤ 400 nM | B6
≤ 400 nM | WPQSILDKHGQDVW (not fully specified; Ac-NH-WPQSILDK*H-Chg-QD*VW-NH2) [SEQ ID NO: 462]
> 10000 nM and ≤ 30000 nM | B7
≤ 400 nM | B8
≤ 400 nM | B9
≤ 400 nM | B10
≤ 400 nM | B11
> 400 nM and ≤ 1000 nM | B12
> 400 nM and ≤ 1000 nM | B13
> 400 nM and ≤ 1000 nM | Ac-WILIAFWG-OH [SEQ ID NO: 263]
> 10000 nM and ≤ 30000 nM | Ac-LISFWG-OH [SEQ ID NO: 238]
> 10000 nM and ≤ 30000 nM | H-MWFLISFWA-OH [SEQ ID NO: 7]
≤ 400 nM | KWFLICAWD (not fully specified; cyclo-H2N-K(GABA*)WFLICAWD*-COOH) [SEQ ID NO: 247]
> 400 nM and ≤ 1000 nM | H-MWALISFWG-OH [SEQ ID NO: 13]
> 400 nM and ≤ 1000 nM | KWFLICAWD (not fully specified; cyclo-H2N-K(Ahx*)WFLICAWD*-COOH) [SEQ ID NO: 249]
≤ 400 nM | Ac-MWFLIAFWG-OH [SEQ ID NO: 274]
> 400 nM and ≤ 1000 nM | H-MWFLASFWG-OH [SEQ ID NO: 11]
